We go through 6 substances from patent US20230126400A1.

The target in assay [1] is human MS4A4A (human) (UniProt Q96JQ5). The assay is described as follows: flow cytometry (anti-mouse IgG Fc-APC) on U937 cells transfected with human MS4A4A (Plate B); untransfected U937 cells (Plate A): mean 229; no primary antibody on Plate B: 246. In general terms: In flow cytometry, cells or beads pass a laser one at a time.
Assay [2] addresses cynomolgus (cyno) MS4A4A (cynomolgus). The assay is described as follows: flow cytometry (anti-mouse IgG Fc-APC) on 300.19 cells transfected with cyno MS4A4A (Plate E); untransfected 300.19 cells (Plate C): mean 106; no primary antibody on Plate E: 122.
Assay [3] addresses human MS4A4A (human) (UniProt Q96JQ5). Put plainly: flow cytometry (anti-mouse IgG Fc-APC) on 300.19 cells transfected with human MS4A4A (Plate D); untransfected 300.19 cells (Plate C): mean 106; no primary antibody on Plate D: 177.
Assay [4] shares this target. The assay is described as follows: functional affinity, FACS titration on stably transfected 300.19 cells.
Assay [5] has the same target. Put plainly: flow cytometry (anti-mouse IgG Fc-APC) on U937 cells transfected with human MS4A4A (Plate B); untransfected U937 cells (Plate A): mean 259.
Assay [6] concerns the target cynomolgus (cyno) MS4A4A (cynomolgus). Put plainly: flow cytometry (anti-mouse IgG Fc-APC) on 300.19 cells transfected with cyno MS4A4A (Plate E); untransfected 300.19 cells (Plate C): mean 110.
Assay [7] concerns the target human MS4A4A (human) (UniProt Q96JQ5). The assay is described as follows: flow cytometry (anti-mouse IgG Fc-APC) on 300.19 cells transfected with human MS4A4A (Plate D); untransfected 300.19 cells (Plate C): mean 110.
Assay [8] has the same target. Put plainly: flow cytometry (anti-mouse IgG Fc-APC) on U937 cells transfected with human MS4A4A (Plate B); untransfected U937 cells (Plate A): mean 247; no primary antibody on Plate B: 246.
Assay [9] addresses cynomolgus (cyno) MS4A4A (cynomolgus). The assay is described as follows: flow cytometry (anti-mouse IgG Fc-APC) on 300.19 cells transfected with cyno MS4A4A (Plate E); untransfected 300.19 cells (Plate C): mean 111; no primary antibody on Plate E: 122.
Assay [10] deals with human MS4A4A (human) (UniProt Q96JQ5). The assay is described as follows: flow cytometry (anti-mouse IgG Fc-APC) on 300.19 cells transfected with human MS4A4A (Plate D); untransfected 300.19 cells (Plate C): mean 111; no primary antibody on Plate D: 177.
Assay [11] has the same target. Put plainly: flow cytometry (anti-mouse IgG Fc-APC) on U937 cells transfected with human MS4A4A (Plate B); untransfected U937 cells (Plate A): mean 240; no primary antibody on Plate B: 246.
Assay [12] has as its target human MS4A4A-GFP 4A.Ala.35 (ECL2 deletion of GNS) (human) (UniProt Q96JQ5). The assay is described as follows: FACS, HEK293T.
Assay [13] concerns the target human MS4A4A (human) (UniProt Q96JQ5). Put plainly: flow cytometry (anti-mouse IgG Fc-APC) on HEK293 cells transiently transfected with human MS4A4A (h4A_293); 293 parental cells: mean 131.
Assay [14] deals with cynomolgus (cyno) MS4A4A (cynomolgus). Put plainly: flow cytometry (anti-mouse IgG Fc-APC) on HEK293 cells transiently transfected with cyno MS4A4A (cy4A_293); 293 parental cells: mean 131.
Assay [15] addresses human MS4A4A (human) (UniProt Q96JQ5). Put plainly: flow cytometry (anti-mouse IgG Fc-APC) on U937 cells transfected with human MS4A4A (Plate B); untransfected U937 cells (Plate A): mean 387.

For msIgG2a Isotype Ctrl (antibody), the Mean : APC-A with human MS4A4A (human) [1] amounted to 243; in [2], 109; with human MS4A4A (human) [3], 155.
With anti-MS4A4A antibody 3F2 (Millipore), the Kd – broadly, the concentration at which binding is half-saturated – with human MS4A4A (human) [4] was 9.5 nM. The Mean : APC-A with human MS4A4A (human) [5] was 14300; in [6], 128; in the assay with human MS4A4A (human) [7], 21100.
Consider msIgG2b Isotype Ctrl (antibody), for which the Mean : APC-A in the assay with human MS4A4A (human) [8] amounted to 234; in assay [9] it was 107; with human MS4A4A (human) [10], 155.
Take msIgG1 Isotype Ctrl (antibody): the Mean : APC-A with human MS4A4A (human) [11] is 248; in assay [9], 116; with human MS4A4A (human) [10], 181.
Substance anti-MS4A4A antibody 4H2 (Kerafast) displayed a Kd with human MS4A4A (human) [4] of 10 nM.
As for anti-MS4A4A antibody 5C12 (BioLegend), the % binding compared to wildtype MS4A4A in assay [12] worked out at 1%. Also, in the assay with human MS4A4A (human) [4], the equilibrium dissociation constant (Kd) was found to be 27 nM. In addition, the Mean : APC-A came to 7160 with human MS4A4A (human) [13]; 158 in assay [14]; 15000 with human MS4A4A (human) [15]; 129 in assay [6]; 19500 in the assay with human MS4A4A (human) [7].
